From paper PMC2120187

Biological target: murine IgG heavy chain (murine)
Experiment: immunoprecipitation with anti-mouse IgG and non-reducing SDS-PAGE

stoichiometry N: 2
Substance: murine IgG heavy chain
